# Variants at the floor of the assay were thinned out.
# B1: TPR 5TU (parent)
# chain: GGAUCUUCUCGAUCUAACAAAAAAGACAAAUCUGCCACAAAGCUUGAGAGCAUCUUCGGAUGCAGAGGCGGCAGCCUUCGGUGGCGCGAUAGCGCCAACGUUCUCAACUAUGACACGCAAAACGCGUGCUCCGUUGAAUGGAGUUUAUCAUG
# Variants of: B1
# Assay: polymerase ribozyme fitness, log enrichment relative to wild type (log ratio); higher = more active; in vitro selection for triplet polymerase activity
# Outline: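 Streptavidin-bead capture of gel-excised extended constructs, followed by RT-PCR, closed a single triplicate in vitro selection round. That round began by annealing PCR-built, transcribed mutant libraries of each subunit of a heterodimeric triplet polymerase ribozyme with a biotinylated primer, the partner subunit and triplets, then incubating them frozen at −7 °C. After Illumina sequencing of inputs and outputs, genotypes needed ≥10 input reads and ≥1 read per output. Fitness is the base-2 logarithm of genotype enrichment over wild-type enrichment, using inverse-variance-weighted replicate averages.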
row,Variant,polymerase ribozyme fitness (log ratio)
1,C38A C76U A110G A113G G152A,≤ -4.2
2,C38A C93A G143U,-4.12
3,A39C G59C G86A,-3.73
4,C38U G58U C85U C108A U134A U144C,≤ -4.2
5,C38U U55G G84C A98U,-1
6,C38U G140U,-2.77
7,A39C C51U C105U C118U,-3.78
8,C38A U145C,-0.328
9,C38U C63U A73G C87U,-0.21
10,C38U A41G G58A,1.52
11,C38U A52G G92A G124U,-3.84
12,C38U A40C G81A A91G C125G,-3.83
13,C38U C57A C63U C95U A98U C99G,-1.54
14,A39G C103G G126U,≤ -4.2
15,A39G C99A,-3.78
16,C38A U55A A106C G117A U146A,-1.67
17,C38A U55G A60G,0.135
18,C38U C54A A60U,-0.76
19,A39G C57G C105G A147U,-3.4
20,C38U A73G G83U A91U A97U A110G,≤ -4.2
21,C38G G42C G71C C95A C96A,≤ -4.2

row,Variant,polymerase ribozyme fitness (log ratio)
1,C38A A47G U55A U56C A60G,-2.08
2,C38U G83U C149G A150C,≤ -4.2
3,A39C G133C U146A,-3.57
4,C38G G92A C105G,≤ -4.2
5,C38G G71A U82G A107U,≤ -4.2
6,C38U A66G U82A C96U C125A U145A,≤ -4.2
7,A39C A89U C116U,-2.02
8,C38U C63A C85U,0.65
9,C38U C85A G117C,-0.0326
10,A37U U61A C85U,-2.89
11,C38G C75U C93G,-4.16
12,C38A A64G C69G C87U U134A U151C,≤ -4.2
13,C38U C75A G80U,-4.14
14,C38U G92A U146A,-2.92
15,A39G C57A C99G,-3.15
16,A39C A91U G92A U139G,≤ -4.2
17,C38G U146C,-0.518
18,A39G A60C,-3.03
19,C38A C63G A150G,-3
20,C38A C63A C95U A106G,-1.81
21,C38A A73G C79A C114G G124U G140U U148G,≤ -4.2

row,Variant,polymerase ribozyme fitness (log ratio)
1,C38U G58C C96U A98G,0.385
2,A39C U53G C85U,-4.06
3,C38U U55G A119G,-0.675
4,C38U A41C G48A C51A G84C G141C,≤ -4.2
5,C38U C54U C57A G84A C118U,-1.06
6,A39C G81A C99U C103G A107G C125U,≤ -4.2
7,C38A U56A,-0.602
8,C38A G84A U148G,≤ -4.2
9,C38G A120U G140C A142C,≤ -4.2
10,A39C A89C A119U A120G U130A,≤ -4.2
11,A39C G58A G59C,-1.49
12,A39C U130G,≤ -4.2
13,C38U U148C,-1.36
14,C38U G83A G100A C129G,≤ -4.2
15,C38U A60C U61A C76U C87G C93A G136A G141A,≤ -4.2
16,C38G A73U C95A U146G,-2.85
17,C38U G86A A137G A147U,-2.49
18,C38U C72U C95G,-0.675
19,A39C A40C A41C G42C G46U G59C C87A U90G U127G G152U,≤ -4.2
20,C38G A142C,-1.24
21,A39C G84A,-3.26

row,Variant,polymerase ribozyme fitness (log ratio)
1,A39G A52C C54G C85U C125U G126U A147C,≤ -4.2
2,C38U C93G C125A,-3.39
3,C38U G92U C95G A106U,≤ -4.2
4,A39C U45A G48U C57G G70A G83C C96U A115G G141A,≤ -4.2
5,C38U C93G,-2.92
6,C38U C87U,-1.19
7,C38U C87G,-3.75
8,C38U A47C U53A A142C,-3.39
9,C38U G83C,-0.262
10,C38A C76A C93U G117A,-1.25
11,C38G A41G U55A G83A G143A,-1.78
12,A37U G86U,-3.44
13,C38U G83U C123U U148C,-2.21
14,C38U C63A G94C,-0.694
15,C38G A89C C93A C95G U109C,≤ -4.2
16,A39C C76U G83U U104C,≤ -4.2
17,A39C G62U G70A A115G,≤ -4.2
18,A39C G59U C76G U146G,≤ -4.2
19,A37U U55A G58C A142U,-2.45
20,C38U G48A C87A,≤ -4.2

# Reference: the RNAGym collection of RNA variant scans (doi:10.1073/pnas.2313332121)
